Patent publication US20220096653A1, “CONJUGATE COMPRISING LIGAND AND CEACAM5 ANTIBODY FAB FRAGMENT” (ASTELLAS PHARMA INC., priority 2019, published 2022)

T1: CEACAM5 (R&D Systems, 4128-CM-050) (human, UniProt P06731 35-685)
T1 construct: Immobilised on the ELISA plate; also called human CEACAM5
T1 sequence (looked up): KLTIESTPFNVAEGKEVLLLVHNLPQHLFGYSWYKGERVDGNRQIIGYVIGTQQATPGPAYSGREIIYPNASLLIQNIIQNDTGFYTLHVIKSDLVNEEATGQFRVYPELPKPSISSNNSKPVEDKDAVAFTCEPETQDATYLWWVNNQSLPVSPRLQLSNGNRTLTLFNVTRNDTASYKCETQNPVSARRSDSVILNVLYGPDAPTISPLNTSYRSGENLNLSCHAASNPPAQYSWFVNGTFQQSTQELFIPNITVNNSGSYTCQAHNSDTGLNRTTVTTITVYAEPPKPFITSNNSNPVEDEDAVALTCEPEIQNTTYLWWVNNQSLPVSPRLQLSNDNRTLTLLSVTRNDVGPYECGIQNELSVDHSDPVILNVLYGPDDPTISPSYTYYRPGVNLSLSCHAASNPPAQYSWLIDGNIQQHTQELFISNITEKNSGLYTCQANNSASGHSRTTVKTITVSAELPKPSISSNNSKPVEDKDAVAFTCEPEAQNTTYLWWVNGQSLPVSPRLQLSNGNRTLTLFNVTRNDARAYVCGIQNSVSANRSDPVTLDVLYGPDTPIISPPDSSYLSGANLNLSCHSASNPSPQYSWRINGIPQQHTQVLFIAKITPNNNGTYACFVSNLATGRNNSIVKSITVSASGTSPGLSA

B1: (Y-S1-X)p-Fab^2 with Y Gd/DOTA, S1 -NH-(CH2CH2O)3-CH2-C(═O)-NH-CH2-(1,3-Ph)-C(═O)-, X -Gly-Tyr*-CH-C(═O)-NH-(CH2)2-Z1(#S) (Fab, V domains shown)
VH: EVQLVESGGGLVQPGGSLRLSCAASGFNIRDTYMHWVRQAPGKGLEWVARIDPANGNSRYVPKFQGRFTISADTSRNTAYLQMNSLRAEDTAVYYCAPFGYYVSDYAMAYWGQGTLVTVSS
VL: DIQLTQSPSSLSASVGDRVTITCRAGESVDIFGVGFLHWYQQKPGKAPKLLIYRASNLESGIPSRFSGSGSRTDFTLTISSLQPEDFATYYCQQTNEDPYTFGQGTKVEIKR
modifications: labeling may sit on this chain; sites not stated; labeling portion (MW 1384) on amino groups of the Fab, sites and chain not stated; 1-3 per Fab by MS
notes: also called Ex-No 39; conjugate 39
B2: (Y-S1-X)p-Fab^2 with Y Gd/DOTA, S1 spacer (i), X -Met -Gly-Lys*-Z2(#N)- (Fab, V domains shown)
VH: EVQLVESGGGLVQPGGSLRLSCAASGFNIRDTYMHWVRQAPGKGLEWVARIDPANGNSRYVPKFQGRFTISADTSRNTAYLQMNSLRAEDTAVYYCAPFGYYVSDYAMAYWGQGTLVTVSS
VL: DIQLTQSPSSLSASVGDRVTITCRAGESVDIFGVGFLHWYQQKPGKAPKLLIYRASNLESGIPSRFSGSGSRTDFTLTISSLQPEDFATYYCQQTNEDPYTFGQGTKVEIKR
modifications: labeling may sit on this chain; sites not stated; labeling portion (MW 1296) on amino groups of the Fab, sites and chain not stated; 1-2 per Fab by MS
notes: also called Ex-No 45; conjugate 45
B3: [Gd/4arm-DOTA-CH2-(1,4-Ph)-NH-C(═S)]p-Fab^2 (Fab, V domains shown)
VH: EVQLVESGGGLVQPGGSLRLSCAASGFNIRDTYMHWVRQAPGKGLEWVARIDPANGNSRYVPKFQGRFTISADTSRNTAYLQMNSLRAEDTAVYYCAPFGYYVSDYAMAYWGQGTLVTVSS
VL: DIQLTQSPSSLSASVGDRVTITCRAGESVDIFGVGFLHWYQQKPGKAPKLLIYRASNLESGIPSRFSGSGSRTDFTLTISSLQPEDFATYYCQQTNEDPYTFGQGTKVEIKR
modifications: labeling may sit on this chain; sites not stated; labeling portion (MW 706) on amino groups of the Fab, sites and chain not stated; 1 per Fab by MS
notes: also called Ex-No 48; conjugate 48
B4: (Y-S1-X)p-Fab^2 with Y Gd/DOTA, S1 -NH-(CH2CH2O)3-CH-C(═O)-NH-CH2-(1,3-Ph)-C(═O)-, X -Gly-Lys*-C(═S)-NH-(1,4-Ph)-NH-C(═S)- (Fab, V domains shown)
VH: EVQLVESGGGLVQPGGSLRLSCAASGFNIRDTYMHWVRQAPGKGLEWVARIDPANGNSRYVPKFQGRFTISADTSRNTAYLQMNSLRAEDTAVYYCAPFGYYVSDYAMAYWGQGTLVTVSS
VL: DIQLTQSPSSLSASVGDRVTITCRAGESVDIFGVGFLHWYQQKPGKAPKLLIYRASNLESGIPSRFSGSGSRTDFTLTISSLQPEDFATYYCQQTNEDPYTFGQGTKVEIKR
modifications: labeling may sit on this chain; sites not stated; labeling portion (MW 1259) on amino groups of the Fab, sites and chain not stated; 1-3 per Fab by MS
notes: also called Ex-No 44; conjugate 44
B5: [Gd/DOTA]p-Fab^2 (Fab, V domains shown)
VH: EVQLVESGGGLVQPGGSLRLSCAASGFNIRDTYMHWVRQAPGKGLEWVARIDPANGNSRYVPKFQGRFTISADTSRNTAYLQMNSLRAEDTAVYYCAPFGYYVSDYAMAYWGQGTLVTVSS
VL: DIQLTQSPSSLSASVGDRVTITCRAGESVDIFGVGFLHWYQQKPGKAPKLLIYRASNLESGIPSRFSGSGSRTDFTLTISSLQPEDFATYYCQQTNEDPYTFGQGTKVEIKR
modifications: labeling may sit on this chain; sites not stated; [Gd/DOTA] (MW 542) on amino groups of the Fab, sites and chain not stated; 1-2 per Fab by MS
notes: also called Ex-No 47; conjugate 47
B6: (Y-S1-X)p-Fab^2 with Y Gd/DOTA, S1 -NH-(CH2CH2O)3-CH2-C(═O)-, X -Met-Gly-Lys*-Z2(#N)- (Fab, V domains shown)
VH: EVQLVESGGGLVQPGGSLRLSCAASGFNIRDTYMHWVRQAPGKGLEWVARIDPANGNSRYVPKFQGRFTISADTSRNTAYLQMNSLRAEDTAVYYCAPFGYYVSDYAMAYWGQGTLVTVSS
VL: DIQLTQSPSSLSASVGDRVTITCRAGESVDIFGVGFLHWYQQKPGKAPKLLIYRASNLESGIPSRFSGSGSRTDFTLTISSLQPEDFATYYCQQTNEDPYTFGQGTKVEIKR
modifications: labeling may sit on this chain; sites not stated; labeling portion (MW 1145) on amino groups of the Fab, sites and chain not stated; 1-4 per Fab by MS
notes: also called Ex-No 41; conjugate 41
B7: (Y-S1-X)p-Fab^2 with Y Gd/DOTA, S1 spacer (p), X -Met-Gly-Lys*-Z2(#N)- (Fab, V domains shown)
VH: EVQLVESGGGLVQPGGSLRLSCAASGFNIRDTYMHWVRQAPGKGLEWVARIDPANGNSRYVPKFQGRFTISADTSRNTAYLQMNSLRAEDTAVYYCAPFGYYVSDYAMAYWGQGTLVTVSS
VL: DIQLTQSPSSLSASVGDRVTITCRAGESVDIFGVGFLHWYQQKPGKAPKLLIYRASNLESGIPSRFSGSGSRTDFTLTISSLQPEDFATYYCQQTNEDPYTFGQGTKVEIKR
modifications: labeling may sit on this chain; sites not stated; labeling portion (MW 1079) on amino groups of the Fab, sites and chain not stated; 1-3 per Fab by MS
notes: also called Ex-No 57; conjugate 57

Molecular target: T1, CEACAM5 (R&D Systems, 4128-CM-050)
Experiment: ELISA on immobilised CEACAM5, 4-parameter fit, duplicate
Procedure: Each anti-human CEACAM5 antibody Fab fragment conjugate prepared in Example 2 was subjected to ELISA to evaluate the binding activity thereof to CEACAM5. In the present test, a phosphate buffer (Nacalai Tesque Inc., 0.1 mol/L-Phosphate Buffer Solution (pH 7.2)) prepared to 10 mM by diluting 10-fold with distilled water was used as a solvent for an antigen immobilization liquid, and 20×PBS/Tween 20 Buffer (Thermo Fisher Scientific Inc., 28352) diluted 20-fold with distilled water was used as a wash liquid. In addition, for bovine serum albumin (BSA) used in the present test, 30% Bovine Serum Albumin solution (Sigma-Aldrich, Inc., A9576-50ML) was added in an appropriate proportion for use. CEACAM5 (R&D Systems, 4128-CM-050) was diluted with a 10 mM phosphate buffer (pH 7.2) to 0.1 μg/mL, and added to a Nunc MaxiSorp White 384 plate (Nunc, 4603272) at 30 μL per well, and the plate was incubated overnight at 4° C. for immobilization. The CEACAM5 immobilization liquid was removed by reverse centrifugation, and then blocking was carried out by adding a PBS/Tween 20 buffer containing 5.0% BSA. Thereafter, the blocking solution was removed by reverse centrifugation, a solution of each CEACAM5 antibody Fab² fragment conjugate described above or a Fab² fragment having no labeling portion (PB009-01) as a control at about 10000 ng/mL was diluted in 14 steps by 3-fold dilution using a PBS/Tween 20 buffer containing 1.0% BSA, and 30 μL was added per well and incubated at room temperature for 60 minutes. The plate was washed 3 times with a PBS/Tween 20 buffer, and Horseradish Peroxidase (HRP)-labeled goat anti-human IgG (H+L chain) antibody (MBL Life Sciences, 206) diluted 1000-fold using a PBS/Tween 20 buffer containing 5.0% BSA was added at 30 μL per well and incubated at room temperature for 30 minutes. The plate was washed 3 times with a PBS/Tween 20 buffer, and ECL Prime Western Blotting DETECTION Reagent (GE Healthcare, RPN2232) as a substrate was added at 30 μL per well. The substrate was incubated at room temperature for 15 minutes, and then a signal value thereof was measured using an Envision counter (PerkinElmer, Inc.).
The test for each antibody was carried out in duplicate, and an EC₅₀ value was calculated using a 4-parameter logistic curve model.

Row | EC50 [nM] | Binder
1 | 0.2 | B1
2 | 0.23 | B2
3 | 0.21 | B3
4 | 0.29 | B4
5 | 0.25 | B5
6 | 0.21 | B6
7 | 0.29 | B7
